In the DeepSol protein solubility set:

experiment: soluble on expression in E. coli; label from the status in PepcDB or PDB records

Question: Which “soluble on expression in E. coli” value does the source give for “MTYLEIEGTNHLSGNVTISGAKNAALPLIVSSILAKNEVKINNVPNVADIKTLISLLENLGAKVNFQNNSALLNTNTLNQTIAKYDIVRKMRASILTLGPLLARFGHCEVSLPGGCAIGQRPIDLHLLALEKMGANIQIKQGYVVASGNLKGNEILFDKITVTGSENIIMAAALAKGKTKLLNVAKEPEVVQLCEVLKDAGLEIKGIGTDELEIYGSDGELLEFKEFSVIPDRIEAGTYLCAGAITNSKITLDKVNATHLSAVLAKLHQMGFETLITEDSITLLPAKEIKPVEIMTSEYPGFPTDMQAQFMALALKANGTSIIDERLFENRFMHVSELLRMGADIKLNGHIATIVGGKELNAADVMATDLRASSALILAALAAKGTSKVHRIYHLDRGYENLEEKFKDLGAKITRLEE” here?
Answer: not soluble

Question: With “MNKLYIGNLSENAAPSDLESIFKDAKIPVSGPFLVKTGYAFVDCPDESWALKAIEALSGKIELHGKPIEVEHSVPKRQRIRKLQIRNIPPHLQWEVLDSLLVQYGVVESCEQVNTDSETAVVNVTYSSKDQARQALDKLNGFQLENFTLKVAYIPDEMAAQQNPLQQPRGRRGLGQRGSSRQGSPGSVSKQKPCDLPLRLLVPTQFVGAIIGKEGATIRNITKQTQSKIDVHRKENAGAAEKSITILSTPEGTSAACKSILEIMHKEAQDIKFTEEIPLKILAHNNFVGRLIGKEGRNLKKIEQDTDTKITISPLQELTLYNPERTITVKGNVETCAKAEEEIMKKIRESYENDIASMNLQAHLIPGLNLNALGLFPPTSGMPPPTSGPPSAMTPPYPQFEQSETETVHLFIPALSVGAIIGKQGQHIKQLSRFAGASIKIAPAEAPDAKVRMVIITGPPEAQFKAQGRIYGKIKEENFVSPKEEVKLEAHIRVPSFAAGRVIGKGGKTVNELQNLSSAEVVVPRDQTPDENDQVVVKITGHFYACQVAQRKIQEILTQVKQHQQQKALQSGPPQSRRK” as the sequence, how does the “soluble on expression in E. coli” value read?
Answer: soluble

Question: Which “soluble on expression in E. coli” value does the source give for “MGSDKIHHHHHHMQPSAVTNTTNLTASPSQFYTWQNYRCTYEIHQPTNTTSEGIPLLLIHPIGVGLSRQFWQRFCHEWYNSGQRNSIYNPDLLGCGESDMPHLAYTPSDWAEQLQYFLQTVVRQPVIVVVQGALLPVAIALVQKESNLISRLVLSGPPTWALMTNKPPEWQQKFIWNVLDSPLGIPFYRYARTPKFLRSFSTRQLFASESAVDAEWLNTLVAGAENPASRHAVFSFLAGFWRQDYTNFMASIQQPTLAVVGETASSISQNNKKETPDDRLANYLACFPQSRGIKINGRNVLPYESTAEFVAAIAPFINEVS” here?
Answer: not soluble

Question: For “MSKRNTPQRRHNILALLNEQGEVSVDELAKRFETSEVTIRKDLAALESNGLLLRRYGGAITMPQELVSDIGQPVSLYKQAIARAAVQRIREHARIIIDSGSTTAAMIPELGLQPGLVVMTNSLNVANALSELEHEPVLLMTGGTWDPHSESFQGQVAEQVLRSYDFDQLFIGADGIDLARGTTTFNELLGLSRVMAEVAREVVVMVESDKIGRKIPNLELPWSSVHTLITDDRLPLEVRDQIQARGITLICAAVSLEHHHHHH”, which “soluble on expression in E. coli” value is on record?
Answer: soluble

Question: With “MAHHHHHHMGTLEAQTQGPGSMKNYRIESDSFGEIQIEEKFYWGAQTQRSLNNFKISKQKMPKILIRALAILKKCAAQVNYEFGDLEYKIATSIDKAIDRILAGEFEDNFPLVVWQTGSGTQTNMNMNEVIASIANEELTGKKGGKFPVHPNDHVNKGQSSNDSFPTAMHIATVLATKQQLIPALNNLLTYLQDKSKDWDKIIKIGRTHLQDATPLTLKQEFSGYITQIEYALERIEDALKKVYLLAQGGTAVGTGINSKIGFDIKFAQKVAEFTQQPFKTAPNKFESLAAHDALVEFSGTLNTIAVSLMKIANDIRLLGSGPRCGLGELHLPENEPGSSIMPGKVNPTQVEALTMVCTQVMGNHVTVTIAGSNGHLELNVFKPVIIYNILQSIELLSDSVNSFVTHCVKGLEPNIARINTLRDKSLMLVTVLNPHIGYDNAAKIAKEAHKYGITLKEAAKKLNFLSEEEFDKIVVPEKMIS” as the sequence, how does the “soluble on expression in E. coli” value read?
Answer: soluble

Question: For “MQKVRSDIMTHRGSHYDLGVKTALWLQTTPLLKNRNKEWRKRIPRFDIDVKETYDIFQIYSPQIWEEIIGMQDVLNLPTKQMILNFGHYRFTDLKDSGCTVYKGRDFLVRNYDYHPATYDGRYLLFQPNDGGLSQIGPTSRVTGRMDGMNEYGLVMAYNFMHRKKPANGFVCYMVGRLILENCKNVTEAIKFLKEVPHRSSFSYILMDRHSNYAIVEVTPRSIDVRYEHICTNHFELLTHENRNYTRESKERLNRVINKTTPSTNKDIAFKLFNDPQYEIYSNLFKSWSGTIHTSLYEPNSLIAWMALGQNSHPTSINFSNWLKGKKLNINYFEGEIDTPLTFATYLEHHHHHH”, which “soluble on expression in E. coli” value is on record?
Answer: not soluble

Question: For “MSLHLALLMRGGDPHCILDFGAGNGELCKLIALQFCYEPTPSLMAEAKENLADLPQISFCSDLEKISDGSVELIFCLEVFEHLPEKETKDALGQFDRLLTDNGNAVIGVPVEIGIPALYKGIFRMSRRFNTFDASIKNVLLAALSFPPKDRPVSEITPGFAFHHEHMGFDYRKLQALLHAQFGLQQVTTSPFSIFGPWLNPEVNFLIQKANPAVNADAAR”, which “soluble on expression in E. coli” value is on record?
Answer: not soluble

Question: For “GKPDGKIDYADAVFKGCSDPGYLLGLNNTFRYKNFDLNVYFYGQLDLLKSGSYKDYWIVGSGTMTGVNNLYRGYNMPTSAKEVWSHDNTSGKMPGYFQYMSNYGYGDYFLEKSWFIRCRNITLGYTLPVKSAKKLVSNVRIYADVNNLFTITPYDGLDVETDDSYWAYPNVRSFSIGLDITF”, which “soluble on expression in E. coli” value is on record?
Answer: not soluble

Question: With “GSHMAEDEPFSGAKKLRHLLENTDELIVCPGVYDGLSARTAMELGFKSLYMTGAGTTASRLGQPDLAIAQLHDMRDNADMIANLDPFGPPLIADMDTGYGGPIMVARTVEHYIRSGVAGAHLEDQILTKRCGHLSGKKVVSRDEYLVRIRAAVATKRRLRSDFVLIARTDALQSLGYEECIERLRAARDEGADVGLLEGFRSKEQAAAAVAALAPWPLLLNSVENGHSPLITVEEAKAMGFRIMIFSFATLAPAYAAIRETLVRLRDHGVVGTPDGITPVRLFEVCGLQDAMEVDNGAGGKAFSEGV” as the sequence, how does the “soluble on expression in E. coli” value read?
Answer: soluble

Question: With “MGSDKIHHHHHHMAAGCTTPMERRQANGNDEYVNAQTTAPLKVPEGLKSPNYSREYDIPTLGAKANRELVGKNLDIRPPLQVLPMAEGTRVEEGSDNVKVIVESFDNSLDLKQEIFGLLKDHLQSRNIEIVKEDFASGTLETGWIETQEVLESSLWGSDKVFNLKQRYQYQVEVRPHGRTGAVIINLVDHQESYDGDDLKTALSADDKRRYAIDMLNNSIAYMAVKREQAIKAKRVRESLGIGVELVDGAEEGDAFYLAQGDSIRYGLT” as the sequence, how does the “soluble on expression in E. coli” value read?
Answer: not soluble

Question: Which “soluble on expression in E. coli” value does the source give for “MEEHLSVMYERLRQELPKLFLQSHDYSLYSLDVEFINEILNIRTKGRTWYILSLTLCRFLAWNYFAHLRLEVLQLTRHPENWTLQARWRLVGLPVHLLFLRFYKRDKDEHYRTYDAYSTFYLNSSGLICRHRLDKLMPSHSPPTPVKKLLVGALVALGLSEPEPDLNLCSKP” here?
Answer: not soluble

Question: For “MSLDFKAIQALTANDMAKVNETIHAQLNSDVSLINQLGFYIISGGGKRLRPLLAVLSAKALGYQGSHHTTAAAFIEFIHTATLLHDDVVDESDLRRGKATANAAFGNAASVLVGDFIYTRSFQMMTELGSMKILKLMSDAVNVIAEGEVQQLMNCNDPDTTEASYMQVIYSKTARLFEAATQIGAILCDASPEVELAMQNYGKYLGTAFQLIDDVMDYTSDGDEMGKNVGDDLAEGKPTLPLLYAMQHGNPEQAAMIREAIEKANGMSRLNEILAAMEQTGSLQYTIEKALHEADKAIAELAILPESEYKQALITLAHMAVNRSKEGHHHHHH”, which “soluble on expression in E. coli” value is on record?
Answer: soluble

Question: Which “soluble on expression in E. coli” value does the source give for “MPDFKIVISDPQSVEPKRIKVKVKASDQVKSITGEKDGKAVPQAKVNEKTKQLLNVDTLLTLEITKQEGDKKVKVKGHFKVDVDNSVPDNEVWISKTMAEKFGAEDFEAFAYRTKTLQISVDQNKATNLVGLKIGDVFEANQLIGLPVKLKITGGSDNSGFPMRFDVIGAAKRKILLSGPPGFYPNENGERRRKTIRGNTISQEIVQINTIIVRLEHHHHHH” here?
Answer: soluble
